Measured values: the supplement of paper PMC9170038

What follows are sequences tested on K4 kissing-loop RNA reporter (assay: apparent KD of K4 kissing-loop reporter; higher = weaker reporter binding). Conditions: Eterna round: R107; input ligand: FMN 200 uM.
Experimental: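 RNA-MaP round R107: designed RNA switches with theophylline, tryptophan, arginine or FMN aptamers are transcribed on-chip within common flanks. They are titrated with a labelled K4 kissing-loop RNA reporter in RNA-MaP buffer (100 mM Tris pH 7.5, 80 mM KCl, 4 mM MgCl2), without ligand or with the indicated ligand. Median apparent KD per design.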
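Also: bound reporter read as fluorescence of individual clusters on recovered sequencing chips by microscopy, with normalized cluster intensities fitted with a binding model.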

In order of rising “apparent KD of K4 kissing-loop reporter” value:
1. GUUUGGCUCCGAAGACGGCAGUGGGAAAUAUAGGAUAUCUAGAAAUAGAGAAGGAUACUAGUGAUGUUAGUAUCGGAUAAAACAA  85.9 nM
2. UGAUAGGACAGAAGGAGCGGUAGUGAUGUUGCCAAAAGGGUAAGGUGUCAAAAGACACCCUGCCAGGUAGGUCGCUGUCCUAUCU  99.7 nM
3. AUGGUUGUCGUAGGAUAUGUAGGAUAUUCCUAUAGCAGUGAUGUUGCUAAUAUCAAUGGAAGAAGGACAGAAGGACGAUAACCAC [KL-SSFMN-B3 #analogue #DoubleAptamer]  113 nM
4. GGGUGGGUGCGAGGAUAUGGAGUGAUGUUCCAAAAGAAAAGAAGAGAAGAGAAAGAGAGAAAGAAACCAGAAGGCGCGUCCGUCC  115 nM
5. ACCAUCAAAGAUGGCCAGGACUCCGCUGAUACCAGUGUGAAAACACUCCCUUGGCAGCAGGUGAGUGAUGUUCACAGUCCAUGGA [Omel KL Theo A SS B v3]  145 nM
6. GCAUAGCAGACGUUGAGUGGGAGCCAGGCACGAGGACCGGUACGGCCGCCACUCGACUAGGUUUUCAGUGAUGUUGAAAAUUUAG [Exclusion Tryptophan A GF4]  151 nM
7. GAAGGAGACAACAUCACUACUCCUUCAGACUAGGAUAUCAGGAAACUGAGAAGGAGUCUACUUGCAGUGAUGUUGCAAGAAUAAU [[F]''-[K]'-[F]'-[F1]-[F2]-[K1]-[K2]_Design2]  167 nM
8. GCCAGUGAUGUUGGCGAACCGACGCAUGCAGAGGAUAUUCGAUCUUGAAGAAGGCUGCAGCGUCAUCAUACGCAGUGAUGUUGCG [Same State FMN A GF 27]  172 nM
9. UGGACGAUAUACGAUAAGUAUAUCUGGGAUACCAGUGACGAAAGUCACCCUUGGCAGCUCAACUGCCAGUGAUGUUGGUAGUCCA [#17 K4 Theophylline A Same State]  192 nM
10. UGUACCGAGUCAGGAUAUCAACGACUGACAAAGUCGGUCGAAUAUCCAGUGAUGUUGGAAAAUAACUGAGAAGGGACUUGGUACU [FmnBS 13 #SwitchBubble #StaticStem]  194 nM
11. UAUUGAGUGAUGUUCGAUAACCAAUCAGAUACCAGUUUUGUAGAAAACCCUUGGCAGCUGCUCAGCUCUAUAAUGCUUCGCCCUU [theeternabot_sameState_KL_Theo_A_18]  199 nM
12. AGGUAUGUCUGAAGGAGCGACUAAGAAGCAGUGAUGUUGCUAAGUAGUAAGUAGCUACGUAGUCAGGUAGGUCGCAGAUAUACCU [Arg B SS t14]  322 nM
13. UUUUUAAUCGCAGAUACCAGUCCAGAAUGAAUACUAUAGUGAUGUUAUAAUAAAGGGAAGGACCCUUGGCAGCUGUAAUAUAUUU [AstrosSsTheB#5]  386 nM
14. GCAGUGAUGUUGCGCGGGUACGGUGGAGUGCGAGGACCGGUACGGCCGCCACUCGUACGGAACUGGCUAAUAUAUGGAUAGGUGA [VI]  397 nM
15. CGAGUGAUGUUCGUUUUUUACUCUGUUUGACAGGAUAUGCGGAAACGCAGAAGGGUCACCUUUGAGUUAGACGGAGUUAUUUUUU [Ex FMN A 21]  409 nM
16. GCCAGAGCGCGAAGGAGCGCCGUGACAGGUUGCUGCCGUGGGCAGUGAUGUUGCUCAGUCCGGCAGGUAGGUCGCGUGCUCUGGC  422 nM
17. UUGAGCCGGACCCAAGUCCGGCUCUGCGAGCGAGGACCGGUACGGCCGCCACUCGGUGCAGUGAUGUUGCAUGGCCGCAAGGCCG [#2 Exclusion - Tryptophan A Attempt #7 (HarryS)]  439 nM
18. AGGAUCCGUCGACAAAAGUCGACAUAAACCAAGGAUAUGACGAAAGUCAGAAGGUGGUCAUAAGACCAGUGAUGUUGGUGGAUCC [FmnA 11 #SwitchBubble #K4Late]  984 nM

Same assay, conditions: Eterna round: R107; input ligand: arginine 13.2 mM

In order of rising “apparent KD of K4 kissing-loop reporter” value:
1. GUUUGGCUCCGAAGACGGCAGUGGGAAAUAUAGGAUAUCUAGAAAUAGAGAAGGAUACUAGUGAUGUUAGUAUCGGAUAAAACAA  76.3 nM
2. UGAUAGGACAGAAGGAGCGGUAGUGAUGUUGCCAAAAGGGUAAGGUGUCAAAAGACACCCUGCCAGGUAGGUCGCUGUCCUAUCU  93.8 nM
3. ACCAUCAAAGAUGGCCAGGACUCCGCUGAUACCAGUGUGAAAACACUCCCUUGGCAGCAGGUGAGUGAUGUUCACAGUCCAUGGA [Omel KL Theo A SS B v3]  116 nM
4. AUGGUUGUCGUAGGAUAUGUAGGAUAUUCCUAUAGCAGUGAUGUUGCUAAUAUCAAUGGAAGAAGGACAGAAGGACGAUAACCAC [KL-SSFMN-B3 #analogue #DoubleAptamer]  120 nM
5. GAAGGAGACAACAUCACUACUCCUUCAGACUAGGAUAUCAGGAAACUGAGAAGGAGUCUACUUGCAGUGAUGUUGCAAGAAUAAU [[F]''-[K]'-[F]'-[F1]-[F2]-[K1]-[K2]_Design2]  123 nM
6. GGGUGGGUGCGAGGAUAUGGAGUGAUGUUCCAAAAGAAAAGAAGAGAAGAGAAAGAGAGAAAGAAACCAGAAGGCGCGUCCGUCC  123 nM
7. GCAUAGCAGACGUUGAGUGGGAGCCAGGCACGAGGACCGGUACGGCCGCCACUCGACUAGGUUUUCAGUGAUGUUGAAAAUUUAG [Exclusion Tryptophan A GF4]  141 nM
8. UGGACGAUAUACGAUAAGUAUAUCUGGGAUACCAGUGACGAAAGUCACCCUUGGCAGCUCAACUGCCAGUGAUGUUGGUAGUCCA [#17 K4 Theophylline A Same State]  153 nM
9. GCCAGUGAUGUUGGCGAACCGACGCAUGCAGAGGAUAUUCGAUCUUGAAGAAGGCUGCAGCGUCAUCAUACGCAGUGAUGUUGCG [Same State FMN A GF 27]  156 nM
10. UAUUGAGUGAUGUUCGAUAACCAAUCAGAUACCAGUUUUGUAGAAAACCCUUGGCAGCUGCUCAGCUCUAUAAUGCUUCGCCCUU [theeternabot_sameState_KL_Theo_A_18]  169 nM
11. AGGAUCCGUCGACAAAAGUCGACAUAAACCAAGGAUAUGACGAAAGUCAGAAGGUGGUCAUAAGACCAGUGAUGUUGGUGGAUCC [FmnA 11 #SwitchBubble #K4Late]  268 nM
12. CGAGUGAUGUUCGUUUUUUACUCUGUUUGACAGGAUAUGCGGAAACGCAGAAGGGUCACCUUUGAGUUAGACGGAGUUAUUUUUU [Ex FMN A 21]  287 nM
13. GCAGUGAUGUUGCGCGGGUACGGUGGAGUGCGAGGACCGGUACGGCCGCCACUCGUACGGAACUGGCUAAUAUAUGGAUAGGUGA [VI]  291 nM
14. UUGAGCCGGACCCAAGUCCGGCUCUGCGAGCGAGGACCGGUACGGCCGCCACUCGGUGCAGUGAUGUUGCAUGGCCGCAAGGCCG [#2 Exclusion - Tryptophan A Attempt #7 (HarryS)]  294 nM
15. UUUUUAAUCGCAGAUACCAGUCCAGAAUGAAUACUAUAGUGAUGUUAUAAUAAAGGGAAGGACCCUUGGCAGCUGUAAUAUAUUU [AstrosSsTheB#5]  315 nM
16. AGGUAUGUCUGAAGGAGCGACUAAGAAGCAGUGAUGUUGCUAAGUAGUAAGUAGCUACGUAGUCAGGUAGGUCGCAGAUAUACCU [Arg B SS t14]  348 nM
17. GCCAGAGCGCGAAGGAGCGCCGUGACAGGUUGCUGCCGUGGGCAGUGAUGUUGCUCAGUCCGGCAGGUAGGUCGCGUGCUCUGGC  434 nM
18. UGUACCGAGUCAGGAUAUCAACGACUGACAAAGUCGGUCGAAUAUCCAGUGAUGUUGGAAAAUAACUGAGAAGGGACUUGGUACU [FmnBS 13 #SwitchBubble #StaticStem]  629 nM

Same assay, conditions: Eterna round: R107; input ligand: none

In order of rising “apparent KD of K4 kissing-loop reporter” value:
1. GUUUGGCUCCGAAGACGGCAGUGGGAAAUAUAGGAUAUCUAGAAAUAGAGAAGGAUACUAGUGAUGUUAGUAUCGGAUAAAACAA  73 nM
2. UGGACGAUAUACGAUAAGUAUAUCUGGGAUACCAGUGACGAAAGUCACCCUUGGCAGCUCAACUGCCAGUGAUGUUGGUAGUCCA [#17 K4 Theophylline A Same State]  135 nM
3. GCAUAGCAGACGUUGAGUGGGAGCCAGGCACGAGGACCGGUACGGCCGCCACUCGACUAGGUUUUCAGUGAUGUUGAAAAUUUAG [Exclusion Tryptophan A GF4]  142 nM
4. UAUUGAGUGAUGUUCGAUAACCAAUCAGAUACCAGUUUUGUAGAAAACCCUUGGCAGCUGCUCAGCUCUAUAAUGCUUCGCCCUU [theeternabot_sameState_KL_Theo_A_18]  208 nM
5. CGAGUGAUGUUCGUUUUUUACUCUGUUUGACAGGAUAUGCGGAAACGCAGAAGGGUCACCUUUGAGUUAGACGGAGUUAUUUUUU [Ex FMN A 21]  322 nM
6. UUGAGCCGGACCCAAGUCCGGCUCUGCGAGCGAGGACCGGUACGGCCGCCACUCGGUGCAGUGAUGUUGCAUGGCCGCAAGGCCG [#2 Exclusion - Tryptophan A Attempt #7 (HarryS)]  377 nM
7. GCAGUGAUGUUGCGCGGGUACGGUGGAGUGCGAGGACCGGUACGGCCGCCACUCGUACGGAACUGGCUAAUAUAUGGAUAGGUGA [VI]  383 nM
8. GCCAGAGCGCGAAGGAGCGCCGUGACAGGUUGCUGCCGUGGGCAGUGAUGUUGCUCAGUCCGGCAGGUAGGUCGCGUGCUCUGGC  548 nM
9. UGUACCGAGUCAGGAUAUCAACGACUGACAAAGUCGGUCGAAUAUCCAGUGAUGUUGGAAAAUAACUGAGAAGGGACUUGGUACU [FmnBS 13 #SwitchBubble #StaticStem]  1080 nM
